In paper PMC4303595:

Molecular target: Ccc1(1-109), truncated recombinant fragment of Ccc1 that contains its chromodomain (Cryptococcus neoformans)
Assay: fluorescence polarisation

Substance | Kd [µM]
unlabeled Cryptococcus H3K27me2 peptide | 119
unlabeled Cryptococcus H3K27me3 peptide | 28
